# From paper PMC3806657 (Molecular Biology of the Cell, 2013)
# T1: 6His-tagged GEF domain of Gef2 (aa 211-600) (S. pombe, UniProt Q09733 211-600)
# T1 sequence: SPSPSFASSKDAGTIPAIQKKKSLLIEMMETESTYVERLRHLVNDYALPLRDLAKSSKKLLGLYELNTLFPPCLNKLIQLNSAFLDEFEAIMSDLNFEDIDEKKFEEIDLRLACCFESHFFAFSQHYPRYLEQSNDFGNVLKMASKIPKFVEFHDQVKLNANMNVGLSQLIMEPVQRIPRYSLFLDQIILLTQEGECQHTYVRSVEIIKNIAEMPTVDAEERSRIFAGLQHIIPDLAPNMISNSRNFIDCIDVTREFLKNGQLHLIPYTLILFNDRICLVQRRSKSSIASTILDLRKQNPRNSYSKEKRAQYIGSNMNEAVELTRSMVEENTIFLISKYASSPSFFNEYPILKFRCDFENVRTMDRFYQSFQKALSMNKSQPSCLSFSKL
# Target: T1, 6His-tagged GEF domain of Gef2 (aa …)
# Experiment: pull-down
row,Binder,binding result
1,GST-Rho5 (enzyme) MTTELRRKLVIVGDGACGKTCLLIVFSKGTFPEVYVPTVFENYVADVEVDGRHIELALWDTAGQEDYDRLRPLSYPDSHVVLICFSVDAPESLDNVQEKWISEVLHFCSNLPILLVGCKVDLRNDPKTIEELSKTSQKPITFEEGQVVAQKIGAYKYLECSAKLNEGVNEVFETAARASMLKFKPASVPKTKKKKHCILL,binds
2,GST-Rho1 (enzyme) MATELRRKLVIVGDGACGKTCLLIVFSKGTFPEVYVPTVFENYVADVEVDGRHVELALWDTAGQEDYDRLRPLSYPDSHVILICFAVDSPDSLDNVQEKWISEVLHFCSSLPILLVACKADLRNDPKIIEELSKTNQHPVTTEEGQAVAQKIGAYKYLECSAKTNEGVREVFESATRAAMLKHKPKVKPSSGTKKKKRCILL,binds
3,GST-Rho4 (enzyme) MSAFKKSGSKSETSKKLVVVGDGGCGKTCLLIVFSSGTFPERYVPTVFENYITDITYGPNSKVIELALWDTAGQEEYDRLRPLSYPNSNVILLCFSIDCPASLNNVTEKWYPEVQHFCPRTPIVLVGLKADLRKDRNATEVLRTQGLTPVTYQQAQSVALSMNAPYVECSAKENTGVNEVFQLAVGLTIKKSFSFSKKSCVIL,binds
